Test results: the supplement of paper PMC7877785
± gives the uncertainty stated by the source.

Assay: self-splicing fitness, log relative to wild type (ln ratio); higher = more splicing; Tetrahymena group I intron in knt gene, E. coli kanamycin selection, DiMSum; sequences stand for … in CUCUCU…GGAGGGAAAAGUUAUCAGGCAUGCACCUGGUAGCUAGUCUUUAAACCAAUAGAUUGCAUCGGUUUAAAAGGCAAGACCGUCAAAUUGCGGGAAAGGGGUCAACAGCCGUUCAGUACCAAGUCUCAGGGGAAACUUUGAGAUGGCCUUGCAAAGGGUAUGGUAAUAAGCUGACGGACAUGGUCCUAACCACGCAGCCAAGUCCUAAGUCAACAGAUCUUCUGUUGAUAUGGAUGCAGUUCACAGACUAAAUGUCGGUCGGGGAAGAUGUAUUCUUCUCAUAAGAUAUAGUCGGACCUCUCCUUAAUGGGAGCUAGCGGAUGAAGUGAUGCAACACUGGAGCCGCUGGGAACUAAUUUGUAUGCGAAAGUAUAUUGAUUAGUUUUGGAGUACUCGUGGUCG
In short: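 DiMSum derived fitness as the error-weighted combination of fold changes across replicates, kanamycin versus no kanamycin, normalised to wild type. E. coli BL21(DE3) held the library, which randomised all eight P1ex-region intron nucleotides within the knt kanamycin-resistance gene on pET-22b(+). Six replicate transformations grew overnight at 37°C or 30°C on LB agar with or without 25 μg/mL kanamycin, also containing 100 μg/mL carbenicillin, 50 μM IPTG and 0.2% rhamnose, and pooled colonies were amplicon-sequenced on an Illumina HiSeq 2500.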

Sequence | self-splicing fitness (ln) (30 °C) | self-splicing fitness (ln) (37 °C)
CACUAGCAAUAUUACGCGAC | -3.04 ± 0.18 | -3.16 ± 0.3
CACUAGCAAUAUUACGCGAG | -2.13 ± 0.26 | -1.79 ± 0.17
CACUAGCAAUAUUACGCUGC | -3.71 ± 0.32 | -2.76 ± 0.35
CACUAGCAAUAUUACGGACA | -1.84 ± 0.16 | -1.99 ± 0.18
CACUAGCAAUAUUACGGAGU | -3.63 ± 0.18 | -2.14 ± 0.16
CACUAGCAAUAUUACGGUAA | -2.52 ± 0.16 | -0.923 ± 0.11
CACUAGCAAUAUUACGUACC | -3.22 ± 0.18 | -2.55 ± 0.24
CACUAGCAAUAUUACGUAGU | -3.45 ± 0.14 | -2.92 ± 0.18
CACUAGCAAUAUUACGUAUU | -3.28 ± 0.17 | -2.11 ± 0.15
CACUAGCAAUAUUACGUCGA | -1.58 ± 0.13 | -1.48 ± 0.1
CAGAAGCAAUAUUACGAAAU | -3.92 ± 0.42 | -1.33 ± 0.38
CAGAAGCAAUAUUACGAACA | -1.81 ± 0.18 | -0.783 ± 0.17
CAGAAGCAAUAUUACGAAGA | -3.8 ± 0.27 | -2.85 ± 0.25
CAGAAGCAAUAUUACGAAUA | -2.43 ± 0.27 | -1.84 ± 0.24
CAGAAGCAAUAUUACGAGAG | -2.78 ± 0.17 | -1.98 ± 0.19
CAGAAGCAAUAUUACGAGCA | – | -1.3 ± 0.38
CAGAAGCAAUAUUACGAUAU | -3.56 ± 0.2 | -2.53 ± 0.15
CAGAAGCAAUAUUACGAUUG | -1.92 ± 0.11 | -1.47 ± 0.12
CAGAAGCAAUAUUACGCACA | -1.56 ± 0.077 | -0.438 ± 0.087
CAGAAGCAAUAUUACGCACC | -3.18 ± 0.41 | -2.1 ± 0.46
CAGAAGCAAUAUUACGCCCA | -1.97 ± 0.15 | -0.986 ± 0.16
CAGAAGCAAUAUUACGCGUA | -2.63 ± 0.27 | -1.69 ± 0.15
CAGAAGCAAUAUUACGCUAC | -0.828 ± 0.41 | –
CAGAAGCAAUAUUACGCUAG | -2.82 ± 0.18 | -1.73 ± 0.2
CAGAAGCAAUAUUACGCUGG | -2.84 ± 0.15 | -2.21 ± 0.15
CAGAAGCAAUAUUACGCUUG | -4.25 ± 0.16 | -2.99 ± 0.14

Sequence | self-splicing fitness (ln) (30 °C) | self-splicing fitness (ln) (37 °C)
CAGAAGCAAUAUUACGGACC | -3.56 ± 0.48 | -2.5 ± 0.46
CAGAAGCAAUAUUACGGCAU | -3.35 ± 0.19 | -1.95 ± 0.15
CAGAAGCAAUAUUACGGGCA | -2.53 ± 0.16 | -1.76 ± 0.18
CAGAAGCAAUAUUACGGGUC | -3.4 ± 0.29 | -2.55 ± 0.2
CAGAAGCAAUAUUACGGGUU | -3.12 ± 0.24 | -3.23 ± 0.21
CAGAAGCAAUAUUACGUACU | -1.83 ± 0.13 | -1.22 ± 0.12
CAGAAGCAAUAUUACGUAGG | -0.872 ± 0.06 | 0.297 ± 0.1
CAGCAGCAAUAUUACGAAGG | -1.16 ± 0.11 | -1.05 ± 0.11
CAGCAGCAAUAUUACGACAA | -3.11 ± 0.39 | -1.67 ± 0.23
CAGCAGCAAUAUUACGACAG | -0.416 ± 0.073 | 0.533 ± 0.1
CAGCAGCAAUAUUACGACUA | -0.351 ± 0.068 | 0.43 ± 0.081
CAGCAGCAAUAUUACGAGUC | -4.41 ± 0.29 | -2.24 ± 0.14
CAGCAGCAAUAUUACGCCAG | -0.865 ± 0.089 | 0.0215 ± 0.12
CAGCAGCAAUAUUACGCGGA | -2.58 ± 0.14 | -1.14 ± 0.11
CAGCAGCAAUAUUACGGCGG | -1.93 ± 0.093 | -1.5 ± 0.16
CAGCAGCAAUAUUACGUCGC | -3.31 ± 0.18 | -2.21 ± 0.21
CAGCAGCAAUAUUACGUCUG | -3.11 ± 0.14 | -2.85 ± 0.22
CAGCAGCAAUAUUACGUGUU | -4.61 ± 0.22 | -2.5 ± 0.13
CAGCAGCAAUAUUACGUUUA | -2.11 ± 0.12 | -2.02 ± 0.12
CAGGAGCAAUAUUACGACAA | – | -1.73 ± 0.41
CAGGAGCAAUAUUACGAGUG | -2.51 ± 0.2 | -1.95 ± 0.17
CAGGAGCAAUAUUACGAUCU | – | -2.45 ± 0.45
CAGGAGCAAUAUUACGAUUG | -3.77 ± 0.28 | -2.46 ± 0.23
CAGGAGCAAUAUUACGCAUA | – | -1.73 ± 0.33
CAGGAGCAAUAUUACGGAGG | -2.02 ± 0.095 | -1.21 ± 0.12
CAGGAGCAAUAUUACGGGCU | -4.13 ± 0.39 | -2.17 ± 0.34

Sequence | self-splicing fitness (ln) (30 °C) | self-splicing fitness (ln) (37 °C)
CAGGAGCAAUAUUACGGGUU | -4.36 ± 0.25 | -2.99 ± 0.19
CAGGAGCAAUAUUACGUAAU | -3.99 ± 0.47 | -2.78 ± 0.44
CAGGAGCAAUAUUACGUAUA | -4.26 ± 0.34 | -1.62 ± 0.21
CAGGAGCAAUAUUACGUCCG | 0.726 ± 0.21 | 0.304 ± 0.29
CAGGAGCAAUAUUACGUUGG | -2.44 ± 0.14 | -0.863 ± 0.14
CAGUAGCAAUAUUACGAACA | -3.3 ± 0.48 | -2.86 ± 0.41
CAGUAGCAAUAUUACGAAGA | – | -2.1 ± 0.41
CAGUAGCAAUAUUACGAAGG | -1.25 ± 0.12 | -1.8 ± 0.14
CAGUAGCAAUAUUACGAAUG | -1.36 ± 0.1 | -0.492 ± 0.11
CAGUAGCAAUAUUACGACGC | -3.07 ± 0.38 | -0.25 ± 0.25
CAGUAGCAAUAUUACGACGU | -1.15 ± 0.14 | -0.0577 ± 0.18
CAGUAGCAAUAUUACGACUC | -0.076 ± 0.18 | 0.539 ± 0.28
CAGUAGCAAUAUUACGAGAG | -3.95 ± 0.24 | -2.76 ± 0.19
CAGUAGCAAUAUUACGAGCU | -3.07 ± 0.28 | 0.322 ± 0.19
CAGUAGCAAUAUUACGAUGG | -0.609 ± 0.077 | -0.119 ± 0.11
CAGUAGCAAUAUUACGCAGG | -1.59 ± 0.096 | -0.318 ± 0.11
CAGUAGCAAUAUUACGCGUA | -2.89 ± 0.27 | -1.64 ± 0.19
CAGUAGCAAUAUUACGGAUA | -1.58 ± 0.32 | -2.79 ± 0.38
CAGUAGCAAUAUUACGGGUC | -3.88 ± 0.37 | -1.32 ± 0.24
CAGUAGCAAUAUUACGGGUU | -2.49 ± 0.18 | -1.82 ± 0.2
CAGUAGCAAUAUUACGGUAC | -5 ± 0.45 | -3 ± 0.27
CAGUAGCAAUAUUACGUCAA | -2.64 ± 0.14 | -2.59 ± 0.26
CAGUAGCAAUAUUACGUCGU | -2.6 ± 0.17 | -2.44 ± 0.17
CAGUAGCAAUAUUACGUGAU | -4.22 ± 0.34 | -1.2 ± 0.15
CAGUAGCAAUAUUACGUGCG | -0.0402 ± 0.068 | 0.239 ± 0.088
CAGUAGCAAUAUUACGUGCU | -2.95 ± 0.19 | -1.84 ± 0.3
